In this assay the target is CdiI^Kp342 immunity protein (untagged) (Klebsiella pneumoniae 342). Kind of assay: crystal structure.

The source of these data is article PMC6834915.

For orientation: stoichiometry N means a count of units in the complex or per binding partner.

In the case of “CdiI^Kp342 immunity protein (untagged) (natural protein)”, the stoichiometry N came to 2.
